Measurements reported in US10738094B2, “Peptides and combination of peptides for use in immunotherapy against ovarian cancer and other cancers” (immatics biotechnologies GmbH, priority 2015, dated 2020).

Target: HLA-A*02:01 (Homo sapiens, UniProt P04439, D140Y/D185E/D98H/E176V/E277Q/G131W/G231S/I119V/I121R/I166T/I218V/L300P/L318F/N151K/N90K/P208A/P217A/Q86G/Q94H/R138H/R169H/T345S)
Assay: MHC binding assay (UV-ligand exchange, beta2m ELISA)
Settings: binding to HLA-A*02:01 ranged by peptide exchange yield (UV-ligand exchange, β2m ELISA)
Procedure, shortened: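 Stabilised complexes were quantified via their β2m light chain: 100-fold-diluted monomers bound to streptavidin plates, then HRP anti-β2m at 2 ug/ml for 1 h at 37° C., TMB read at 450 nm. The value is the yield of UV-induced exchange of a photocleavable peptide for the candidate.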

Substance | Peptide exchange
284 (ILLSQTTGV; listed as Homo sapiens) [compound 284] | “+++” (≥50 = +++)
89 (YILPTETIYV; listed as Homo sapiens) [compound 89] | “++++” (≥75% = ++++)
67 (TLLAEALVTV; listed as Homo sapiens) [compound 67] | “+++” (≥50 = +++)
16 (VLFQGQASL; listed as Homo sapiens) [compound 16] | “+++” (≥50 = +++)
493 (GLLGEKTQDLIGV; listed as Homo sapiens) [compound 493] | “+++” (≥50 = +++)
501 (LLDPNVKSIFV; listed as Homo sapiens) [compound 501] | “+++” (≥50 = +++)
572 (ALADLIEKELSV; listed as Homo sapiens) [compound 572] | “+++” (≥50 = +++)
314 (ALIAEGIALV; listed as Homo sapiens) [compound 314] | “+++” (≥50 = +++)
575 (YLISQVEGHQV; listed as Homo sapiens) [compound 575] | “+++” (≥50 = +++)
585 (ALWDLAADKQTL; listed as Homo sapiens) [compound 585] | “++++” (≥75% = ++++)
285 (QLLHVGVTV; listed as Homo sapiens) [compound 285] | “+++” (≥50 = +++)
90 (TLLQIIETV; listed as Homo sapiens) [compound 90] | “+++” (≥50 = +++)
177 (YLLPEEYTSTL; listed as Homo sapiens) [compound 177] | “++++” (≥75% = ++++)
502 (RLLAQVPGL; listed as Homo sapiens) [compound 502] | “+++” (≥50 = +++)
588 (SLLPLSHLV; listed as Homo sapiens) [compound 588] | “+++” (≥50 = +++)
560 (ALWDIETGQQTTT; listed as Homo sapiens) [compound 560] | “+++” (≥50 = +++)
455 (SLLKEPQKVQL; listed as Homo sapiens) [compound 455] | “++” (≥20% = ++)
518 (KLNAEVACV; listed as Homo sapiens) [compound 518] | “+++” (≥50 = +++)
548 (ALWENPESGEL; listed as Homo sapiens) [compound 548] | “++” (≥20% = ++)

Substance | Peptide exchange
335 (YSLSSVVTV; listed as Homo sapiens) [compound 335] | “+++” (≥50 = +++)
210 (LLLNAVLTV; listed as Homo sapiens) [compound 210] | “++” (≥20% = ++)
110 (FLSQVDFEL; listed as Homo sapiens) [compound 110] | “+++” (≥50 = +++)
373 (SLLEDKGLAEV; listed as Homo sapiens) [compound 373] | “++” (≥20% = ++)
239 (AAFAGKLLSV; listed as Homo sapiens) [compound 239] | “+++” (≥50 = +++)
240 (ILLEQAFYL; listed as Homo sapiens) [compound 240] | “+++” (≥50 = +++)
205 (SLYPGTETMGL; listed as Homo sapiens) [compound 205] | “+++” (≥50 = +++)
168 (KILDADIQL; listed as Homo sapiens) [compound 168] | “++++” (≥75% = ++++)
154 (ALDDGTPAL; listed as Homo sapiens) [compound 154] | “++” (≥20% = ++)
462 (KLAKQPETV; listed as Homo sapiens) [compound 462] | “+++” (≥50 = +++)
397 (YLFGERLLEC; listed as Homo sapiens) [compound 397] | “+++” (≥50 = +++)
453 (KLLEATSAV; listed as Homo sapiens) [compound 453] | “++” (≥20% = ++)
607 (RLYSGISGLEL; listed as Homo sapiens) [compound 607] | “+++” (≥50 = +++)
181 (LLWAGTAFQV; listed as Homo sapiens) [compound 181] | “+++” (≥50 = +++)
562 (YLEELPEKLKL; listed as Homo sapiens) [compound 562] | “+++” (≥50 = +++)
316 (ILLERLWYV; listed as Homo sapiens) [compound 316] | “+++” (≥50 = +++)
265 (LLFGGTKTV; listed as Homo sapiens) [compound 265] | “++” (≥20% = ++)
321 (GLFEDVTQPGILL; listed as Homo sapiens) [compound 321] | “++++” (≥75% = ++++)
21 (VLDELDMEL; listed as Homo sapiens) [compound 21] | “++” (≥20% = ++)

Further lines, results first:

Peptide exchange | Substance
“+++” (≥50 = +++) | 352 (SLLELLHIYV; listed as Homo sapiens) [compound 352]
“+++” (≥50 = +++) | 86 (NLIGKIENV; listed as Homo sapiens) [compound 86]
“+++” (≥50 = +++) | 606 (ALWETEVYI; listed as Homo sapiens) [compound 606]
“++” (≥20% = ++) | 180 (FQIDPHSGLVTV; listed as Homo sapiens) [compound 180]
“+++” (≥50 = +++) | 343 (SLLEVNEESTV; listed as Homo sapiens) [compound 343]
“++++” (≥75% = ++++) | 553 (SLLNQDLHWSL; listed as Homo sapiens) [compound 553]
“++” (≥20% = ++) | 176 (YLMEGSYNKVFL; listed as Homo sapiens) [compound 176]
“+++” (≥50 = +++) | 351 (SLIPNLRNV; listed as Homo sapiens) [compound 351]
“+++” (≥50 = +++) | 517 (LLMPIPEGLTL; listed as Homo sapiens) [compound 517]
“+++” (≥50 = +++) | 129 (GLLDGGVDILL; listed as Homo sapiens) [compound 129]
“+++” (≥50 = +++) | 296 (FMEGAIIYV; listed as Homo sapiens) [compound 296]
“++++” (≥75% = ++++) | 137 (TLVLTLPTV; listed as Homo sapiens) [compound 137]
“+++” (≥50 = +++) | 558 (GLLENIPRV; listed as Homo sapiens) [compound 558]
“+++” (≥50 = +++) | 506 (KLLGKVETA; listed as Homo sapiens) [compound 506]
“++” (≥20% = ++) | 87 (ALPEAPAPLLPHIT; listed as Homo sapiens) [compound 87]
“+++” (≥50 = +++) | 317 (SLAALVVHV; listed as Homo sapiens) [compound 317]
“+++” (≥50 = +++) | 327 (GLAPFTEGISFV; listed as Homo sapiens) [compound 327]
“+++” (≥50 = +++) | 330 (QLALKVEGV; listed as Homo sapiens) [compound 330]
“+++” (≥50 = +++) | 521 (MLLTKLPTI; listed as Homo sapiens) [compound 521]
“++” (≥20% = ++) | 333 (FLPDANSSV; listed as Homo sapiens) [compound 333]

Peptide exchange | Substance
“+++” (≥50 = +++) | 544 (LLWDVPAPSL; listed as Homo sapiens) [compound 544]
“+++” (≥50 = +++) | 262 (LLWGDLIWL; listed as Homo sapiens) [compound 262]
“++” (≥20% = ++) | 440 (ALADGVTMQV; listed as Homo sapiens) [compound 440]
“+++” (≥50 = +++) | 378 (ALGYFVPYV; listed as Homo sapiens) [compound 378]
“++” (≥20% = ++) | 580 (LLMENAERV; listed as Homo sapiens) [compound 580]
“++” (≥20% = ++) | 131 (FVPPVTVFPSL; listed as Homo sapiens) [compound 131]
“++++” (≥75% = ++++) | 52 (FLLAHGLGFLL; listed as Homo sapiens) [compound 52]
“++” (≥20% = ++) | 372 (TMLLNIPLV; listed as Homo sapiens) [compound 372]
“+++” (≥50 = +++) | 478 (YLLHEKLNL; listed as Homo sapiens) [compound 478]
“++” (≥20% = ++) | 428 (KLGHTDILVGV; listed as Homo sapiens) [compound 428]
“++” (≥20% = ++) | 145 (FLATSGTLAGI; listed as Homo sapiens) [compound 145]
“++” (≥20% = ++) | 253 (GLDAATATV; listed as Homo sapiens) [compound 253]
“+++” (≥50 = +++) | 442 (GLLGGGGVLGV; listed as Homo sapiens) [compound 442]
“++” (≥20% = ++) | 403 (KLYDRILRV; listed as Homo sapiens) [compound 403]
“+++” (≥50 = +++) | 5 (HLTEVYPEL; listed as Homo sapiens) [compound 5]
“+++” (≥50 = +++) | 618 (VLFDSESIGIYV; listed as Homo sapiens) [compound 618]
“+++” (≥50 = +++) | 315 (YLQDVVEQA; listed as Homo sapiens) [compound 315]
“+++” (≥50 = +++) | 324 (FLYDEIEAEV; listed as Homo sapiens) [compound 324]
“+++” (≥50 = +++) | 78 (SLFSSLEPQIQPV; listed as Homo sapiens) [compound 78]
“+++” (≥50 = +++) | 508 (ILAQEQLVVGV; listed as Homo sapiens) [compound 508]
